Source: article PMC6197187

Biological target: Recombinant human Tau-40 protein (human) (UniProt P10636)
Test: solution binding assay, then SDS-PAGE and western blotting; 1 µg tau and 1 µg recombinant apoE incubated 1 h at 37 °C in 20 µl PBS (pH 7.4); ended with sample buffer without 2-mercaptoethanol, boiled 5 min; immunoblot for tau (HT7) and apoE

Recombinant human Tau-40 protein (human), sequence (P10636 other isoform, or with tags, fused parts or gaps): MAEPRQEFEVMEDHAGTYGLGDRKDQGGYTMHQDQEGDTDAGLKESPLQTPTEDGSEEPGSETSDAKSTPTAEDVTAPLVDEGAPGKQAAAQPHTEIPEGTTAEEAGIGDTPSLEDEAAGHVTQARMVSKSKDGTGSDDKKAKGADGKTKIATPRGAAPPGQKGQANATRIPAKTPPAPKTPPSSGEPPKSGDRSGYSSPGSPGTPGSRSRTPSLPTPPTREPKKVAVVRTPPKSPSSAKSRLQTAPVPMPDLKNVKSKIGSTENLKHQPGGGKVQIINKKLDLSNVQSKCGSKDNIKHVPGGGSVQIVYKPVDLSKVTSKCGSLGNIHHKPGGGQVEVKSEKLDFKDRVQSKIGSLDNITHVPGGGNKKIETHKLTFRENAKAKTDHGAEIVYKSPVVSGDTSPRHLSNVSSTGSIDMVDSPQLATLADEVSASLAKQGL

Recombinant human apoE2 protein (from UniProt P02649 19-317) (natural protein)
N of band A: 2 tau per apoE | N of band B: 2 apoE per tau
